Experimental data as given in US20230295310A1 (ABCELLERA BIOLOGICS, published 2023).
Numbering of substitutions follows the chain as printed.

B1: mAb 102 (antibody, V domains shown)
VH: QVQLVESGGGVVQPGRSLRLSCAASGFSFRSYGMHWVRQAPGKGLEWVSVISYDGGNKYYADSVKGRFTISRDNSKNTLFLQMKSLRAEDTALYYCAKGGGTYWRGLFEYWGQGTLVTVSS
VL: DIQLTQSPSFLSASVGDRVTITCRASQGISSYLAWYQKKPGKAPKLLIYAASTLHSGVPSRFSGGGSGTAFTLTISSLQPEDFATYYCQQLNNYPFTFGPGTKVDIK
B2: mAb 111 (antibody, V domains shown)
VH: EVQLVESGGVLVKTGGSLRLSCVASGFSFKKAWMNWVRQAPGKGLEWVGRIKRNSDGGAADYAAPVKDRFTLSRDDSKNTLYLQMNSLKTEDTAVYYCTTLDSSSWYVGYYYMDVWGKGTTVTVSS
VL: DIHMTQSPSSVSASLGDRVTFTCRASQNINNWLAWYQQKPGKAPKLLIYTASSLQSGVPSRFSGSGSGTDFTLTISSLQPDDFATYYCQQAHSLPITFGQGTRLGIK
B3: mAb 115 (antibody, V domains shown)
VH: B2 VH with V10G, L18H, A59T, A60T, D68G, T71I
VL: B2 VL with H3Q, L15V, F21I, N28D, L46I, S53N, D81E, Y87F, S93G, G105E
B4: mAb 156 (antibody, V domains shown)
VH: B2 VH with V10G, S55T, A59T, D68G, N79K, Y82F, W106Y
VL: B2 VL with H3Q, L15V, T20I, F21I, N28D, P40A, S76G, D81E, G105E
B5: mAb 120 (antibody, V domains shown)
VH: B2 VH with V10G, S55T, A59T, D68G, N79K, Y82F, W106Y
VL: B2 VL with H3Q, L15V, F21I, N28D, S76G, D81E, G105E
B6: mAb 155 (antibody, V domains shown)
VH: B2 VH with V10G, S55T, A59T, D68G, N79K, Y82F, W106Y
VL: B2 VL with H3Q, L15V, T20I, F21I, N28D, S76G, D81E, T97S, G105D
B7: mAb 114 (antibody, V domains shown)
VH: B2 VH with V10G, S55T, A59P, D68G, N79K
VL: DIQMTQSPSSVSASVGDRVIITCRASQDINNWLAWYLQRPGKAPKLLIYAASSLQSGVPSRFSGSGSGTDFTLTIGSLQPEDFATYYCQQAHSLPITFGQGTRLEIQ
B8: mAb 117 (antibody, V domains shown)
VH: B2 VH with V10G, S55T, A59T, A60T, D68G, W106L
VL: B2 VL with H3Q, L15V, F21I, N28D, D81E, G105E
B9: mAb 123 (antibody, V domains shown)
VH: DVQLVESGGGTVKTGGSLRLSCVASGFSFKKAWMNWVRQAPGKGLEWVGRIKKNSDDGTADYAAPVKGRFTISRDDSKRTLFLQMNSLQTEDTAVYYCTTLDSSSWFVGYYYMDVWGKGTTVTVSS
VL: B7 VL with L37Q, R39K, A50T, G68V, T69S, G76D, Q107K
B10: mAb 112 (antibody, V domains shown)
VH: B2 VH with V10G, L18H, A59T, A60T, D68G, T71I
VL: B2 VL with H3Q, L15V, F21I, N28D, L46I, S53N, D81E, Y87F, G105E
B11: mAb 131 (antibody, V domains shown)
VH: B2 VH with V10G, L20I, S55T, A59T, A60I, D68G, T71S, Y82F, Y97F, W106Y
VL: B2 VL with L15V, F21I, N28D, D81E, Y87F
B12: mAb 132 (antibody, V domains shown)
VH: B9 VH with D57G, R79K, F82Y, F107Y
VL: B7 VL with L37Q, R39K, K42I, A50T, G68V, T69S, Q107K
B13: mAb 133 (antibody, V domains shown)
VH: B2 VH with V10G, N35S, S55T, A59T, D68G, N79K, Y82F, T93S, T99V, W106Y
VL: B7 VL with I20S, L37Q, R39K, A50T, Q107K
B14: mAb 125 (antibody, V domains shown)
VH: B2 VH with V10G, S55T, A59T, D68G, N79K, W106R
VL: B7 VL with L37Q, R39K, A43V, A50T, S77T, E105D, Q107K
B15: mAb 113 (antibody, V domains shown)
VH: B2 VH with V10G, S55T, A59T, A60T, D68G
VL: B2 VL with H3Q, L15V, F21I, N28D, L46I, D81E, G105E
B16: mAb 122 (antibody, V domains shown)
VH: B2 VH with V10G, S55T, A59T, D68G, N79K, W106R
VL: B7 VL with L37Q, R39K, A43V, A50T, Q107K
B17: mAb 116 (antibody, V domains shown)
VH: B2 VH with V10G, A59T, A60T, D68G
VL: B2 VL with H3Q, S9F, L15V, F21I, N28D, L46I, D81E, G105E
B18: mAb 106 (antibody, V domains shown)
VH: QVQLVESGGGVVQPGRSLRLSCAASGFTFRSYGMHWVRQAPGKGLEWVAIIWYNGNKKDYVDSVKGRFTISRDNSKNTLYLQMNSLRAEDTALYYCARGPGYNWFDPWGQGTLVTVSS
VL: DIQMTQSPPSLSASVGDRVTITCRASQRISSYLNWYQQKPGKAPKLLIYAASSLQSGVPSRFSGSGSGTDFTLTISSLQPEDFATYYCQQSDSFPLTFGGGTKVEII
B19: mAb 110 (antibody, V domains shown)
VH: B18 VH with T78M
VL: B18 VL with K39R, S91T
B20: mAb 94 (antibody, V domains shown)
VH: QVHLVESGGGVVQPGRSLRLSCSASGFTFSGYGMHWVRQAPGKGLEWVALIYFDGRNKYYADSVKGRFTISRDNSKNTLYLQMNSLRAEDTAVYYCARGGGYNWFDPWGQGTLVTVSS
VL: DIQMTQSPSSLSASVGDRVTITCRASQSISNYLNWYQQKPGKAPKLLIYLASSLQSGVPSRFSGSGSGTDFTLTINSLQPEDFASYYCQLSYSSPFTFGPGTKVDVN
B21: mAb 98 (antibody, V domains shown)
VH: B20 VH with G10D
VL: B20 VL with S30N, N76S, F83L, S85T, N107K
B22: mAb 96 (antibody, V domains shown)
VH: B20 VH with V2A, A49S
VL: B20 VL with S30N, N34S, S53N, S65N, N76S, S85T, S93R, N107K

Columns and labels:
[1] = biological target: T1, human CD3 expressed on cells (human, UniProt P07766 23-207; P04234 22-171; P09693 23-182); test: flow cytometry, 25 nM
T1 construct: whole, on cells; CD3 complex on Jurkat cells and on human primary T cells
T1 sequence (P07766 23-207, chain 1 of 3): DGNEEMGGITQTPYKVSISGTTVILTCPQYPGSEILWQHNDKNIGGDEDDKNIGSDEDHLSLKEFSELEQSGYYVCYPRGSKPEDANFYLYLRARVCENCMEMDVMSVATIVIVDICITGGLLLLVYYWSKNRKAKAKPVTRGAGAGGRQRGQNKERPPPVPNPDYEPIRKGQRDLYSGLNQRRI
T1 sequence (P04234 22-171, chain 2 of 3): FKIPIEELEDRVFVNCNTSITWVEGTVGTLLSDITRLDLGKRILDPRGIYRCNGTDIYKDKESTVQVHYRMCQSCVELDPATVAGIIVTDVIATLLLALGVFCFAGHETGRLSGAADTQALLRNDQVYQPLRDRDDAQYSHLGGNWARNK
T1 sequence (P09693 23-182, chain 3 of 3): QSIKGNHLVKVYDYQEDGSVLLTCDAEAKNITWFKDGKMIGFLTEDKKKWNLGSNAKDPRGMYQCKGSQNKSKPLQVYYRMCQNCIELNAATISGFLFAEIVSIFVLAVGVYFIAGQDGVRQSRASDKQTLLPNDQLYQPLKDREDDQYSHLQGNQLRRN
Summary of the method: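 Antibodies at 25 nM in PBS + 2% FBS were incubated with CD3-expressing cells for 30 minutes at 4° C and analysed by flow cytometry. Median fluorescence intensity was normalized to isotype control to give fold over isotype (FOI); FOI ≥10 counted as binding.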

[2] = biological target: T2, cynomolgus monkey CD3 expressed on primary T cells (cynomolgus monkey, UniProt Q95LI5 22-198; Q95LI8 22-171; Q95LI7 23-181); test: flow cytometry, 25 nM, cyno primary T cells
T2 construct: whole, on cells; CD3 complex on purified cynomolgus monkey T cells; also called cyno CD3
T2 sequence (Q95LI5 22-198, chain 1 of 3): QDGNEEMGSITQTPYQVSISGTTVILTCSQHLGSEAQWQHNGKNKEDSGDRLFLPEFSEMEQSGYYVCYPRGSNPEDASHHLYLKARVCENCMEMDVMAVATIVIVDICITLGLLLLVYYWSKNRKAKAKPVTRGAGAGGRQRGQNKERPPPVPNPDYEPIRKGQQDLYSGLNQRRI
T2 sequence (Q95LI8 22-171, chain 2 of 3): as the sequence (P04234 22-171, chain 2 of 3) above, with I5V, N15K, I20V, S32T, D33N, I34N, T64A, S74N, V83L, H141R counted along it
T2 sequence (Q95LI7 23-181, chain 3 of 3): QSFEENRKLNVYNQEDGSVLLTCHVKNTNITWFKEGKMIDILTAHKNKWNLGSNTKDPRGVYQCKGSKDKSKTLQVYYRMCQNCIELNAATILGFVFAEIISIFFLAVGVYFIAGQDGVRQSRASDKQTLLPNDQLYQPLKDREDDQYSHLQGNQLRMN
Method: Purified antibodies were confirmed to bind CD3 expressed on cells using the CytoFLEX S or LX flow cytometers (Beckman Coulter). Antibodies were diluted to 25 nM in FACS buffer (PBS+2% FBS) and were incubated with CD3-expressing cells for 30 minutes at 4° C. […] The median fluorescence intensity of the binding signal for each antibody was normalized to the isotype control to obtain a fold over isotype value. An antibody with a fold over isotype (FOI) of ≥10 was considered to be positive for binding.

Binder	Human primary T Cell Binding (FOI) [1] [FOI]	Jurkat Cell Binding (FOI) [1] [FOI]	binding result [2]
B1	98.9	101	no binding (tested: FOI >=10 = positive)
B2	168	160	no binding (tested: FOI >=10 = positive)
B3	174	157	no binding (tested: FOI >=10 = positive)
B4	243	171	no binding (tested: FOI >=10 = positive)
B5	167	168	no binding (tested: FOI >=10 = positive)
B6	274	163	no binding (tested: FOI >=10 = positive)
B7	179	167	no binding (tested: FOI >=10 = positive)
B8	170	155	no binding (tested: FOI >=10 = positive)
B9	171	159	no binding (tested: FOI >=10 = positive)
B10	174	158	no binding (tested: FOI >=10 = positive)
B11	171	155	no binding (tested: FOI >=10 = positive)
B12	164	157	no binding (tested: FOI >=10 = positive)
B13	169	161	no binding (tested: FOI >=10 = positive)
B14	180	185	no binding (tested: FOI >=10 = positive)
B15	173	157	no binding (tested: FOI >=10 = positive)
B16	174	199	no binding (tested: FOI >=10 = positive)
B17	174	159	no binding (tested: FOI >=10 = positive)
B18	210	186	no binding (tested: FOI >=10 = positive)
B19	214	197	no binding (tested: FOI >=10 = positive)
B20	174	170	no binding (tested: FOI >=10 = positive)
B21	174	181	no binding (tested: FOI >=10 = positive)
B22	189	174	no binding (tested: FOI >=10 = positive)
